From paper PMC3193169 (BMC Biotechnology, 2011) come the findings set out here.

Values joined by “and” are separate entries in the source; they are usually repeats but may differ in a detail not shown here. Identical values can stand only once.

Common to all, as to settings: both partners purified
In test [1] the target is Staphylococcus aureus enterotoxin B (SEB) toxin (Staphylococcus aureus, strain , UniProt P01552). As to the kind of experiment: SPR.
In test [2] the target is staphylococcal enterotoxin A (SEA) (Staphylococcus aureus, strain , UniProt P0A0L2). The test is described as follows: Luminex fluid array direct binding assay.
Test [3] deals with staphylococcal enterotoxin D (SED) (Staphylococcus aureus, strain , UniProt P20723). The test is described as follows: Luminex fluid array direct binding assay.
Test [4] deals with Shiga Toxin 1 (STX-1) (Stx1 (phage H30 of Escherichia coli), …, UniProt P10149;P69178). As to the kind of experiment: Luminex fluid array direct binding assay.
Chain of Shiga Toxin 1 (STX-1) (P10149 23-315, chain 1 of 2): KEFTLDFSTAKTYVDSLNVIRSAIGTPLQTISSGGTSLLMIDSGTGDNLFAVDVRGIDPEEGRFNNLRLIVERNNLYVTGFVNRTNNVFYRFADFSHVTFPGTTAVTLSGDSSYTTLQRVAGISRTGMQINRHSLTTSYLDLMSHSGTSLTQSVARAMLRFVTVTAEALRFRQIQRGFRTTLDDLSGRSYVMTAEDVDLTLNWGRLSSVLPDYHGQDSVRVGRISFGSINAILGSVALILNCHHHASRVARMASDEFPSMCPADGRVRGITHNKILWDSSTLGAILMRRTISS
Chain of Shiga Toxin 1 (STX-1) (P69178 21-89, chain 2 of 2): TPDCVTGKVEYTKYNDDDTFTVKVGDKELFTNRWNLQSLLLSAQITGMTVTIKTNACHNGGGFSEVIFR

Usually koff stands for the rate constant with which the complex falls apart. As usually defined, the kon is the rate constant with which the complex forms. As a reminder, the Kd is the constant that tells how readily two partners part at equilibrium.

B1: anti-SEB single domain antibody (sdAb) A3 (VHH)
VHH: EVQLVESGGGLVQAGDSLRLSCTASGRTFSRAVMGWFRQAPGKEREFVAAISAAPGTAYYAFYADSVRGRFSISADSAKNTVYLQMNSLKPEDTAVYYCAADLKMQVAAYMNQRSVDYWGQGTQVTVSS
With B1, in test [1], the koff was 6e-05 s⁻¹ and 2.2e-05 s⁻¹; the kon was 100000 M⁻¹ s⁻¹ and 290000 M⁻¹ s⁻¹.

B2: biotinylated sdAb A3 (VHH)
VHH: B1 VHH
Consider B2, for which, in test [1], the Kd was 0.39 nM, the koff was 2.8e-05 s⁻¹ and the on-rate constant (kon) was found to be 72000 M⁻¹ s⁻¹. In addition, the binding result in test [2] is recorded as “no binding”. Moreover, the binding result in test [3] was “no binding”. Further, in test [4], the binding result is listed as “no binding”.
